According to paper PMC4414246:

B1: TAR DNA (structured_DNA)
DNA: GGCAGATCTGAGCCTGGGAGCTCTCTGCC
B2: U1hpII RNA (structured_RNA)
RNA: AGCUUAUCCAUUGCACCGGAUAAGCU

How the values were obtained:
Assay in all cases: fluorescence polarization
U1A E19K = U1A E19K (UniProt P09012 10-89, E19K)
dK50dM51 E19S = dK50dM51 E19S (UniProt P09012 10-89, E19S;del50-51)
U1A L49A = U1A L49A (UniProt P09012 10-89, L49A)
U1A E19A = U1A E19A (UniProt P09012 10-89, E19A)
U1A L49K = U1A L49K (UniProt P09012 10-89, L49K)
dK50dM51 E19K = dK50dM51 E19K (UniProt P09012 10-89, E19K;del50-51)
U1A = U1A (UniProt P09012 10-89)
U1A M51K = U1A M51K (UniProt P09012 10-89, M51K)
U1A E19F = U1A E19F (UniProt P09012 10-89, E19F)
U1A M51A = U1A M51A (UniProt P09012 10-89, M51A)
U1A E19S = U1A E19S (UniProt P09012 10-89, E19S)
U1A E19S:Y13Q = U1A E19S:Y13Q (UniProt P09012 10-89, Y13Q;E19S)
U1A E19S:N15V = U1A E19S:N15V (UniProt P09012 10-89, N15V;E19S)
U1A E19A:N15V = U1A E19A:N15V (UniProt P09012 10-89, N15V;E19A)
U1A L49A:E19A = U1A L49A:E19A (UniProt P09012 10-89, E19A;L49A)
U1A M51A:E19A = U1A M51A:E19A (UniProt P09012 10-89, E19A;M51A)

| Binder | Kd (U1A E19K) [µM] | Kd (dK50dM51 E19S) [µM] | Kd (U1A L49A) [µM] | Kd (U1A E19A) [µM] | Kd (U1A L49K) [µM] | Kd (dK50dM51 E19K) [µM] | Kd (U1A) [µM] | Kd (U1A M51K) [µM] | Kd (U1A E19F) [µM] | Kd (U1A M51A) [µM] | Kd (U1A E19S) [µM] | Kd (U1A E19S:Y13Q) [µM] | Kd (U1A E19S:N15V) [µM] | Kd (U1A E19A:N15V) [µM] | Kd (U1A L49A:E19A) [µM] | Kd (U1A M51A:E19A) [µM] |
| --- | --- | --- | --- | --- | --- | --- | --- | --- | --- | --- | --- | --- | --- | --- | --- | --- |
| B1 | 12.3 ± 2 | 59.9 ± 14.2 | 88.2 ± 22 | 100 ± 33.4 | 19.5 ± 2.9 | 29.8 ± 5.8 | 146 ± 46 | 54.3 ± 7.9 | 156 ± 80 | 179 ± 37.5 | 91.9 ± 33.4 | – | – | – | – | – |
| B2 | – | – | < 0.01 | – | – | – | – | – | 36.1 ± 6.8 | – | 11.4 ± 1.6 | 63.6 ± 8.9 | 15.1 ± 2 | 48.4 ± 12.4 | 11.7 ± 2.1 | 15.8 ± 2.7 |
